The record followed here is doi:10.1101/2020.04.23.053322.

Assay [1] has as its target ATF6-CFP (human ATF6 fused to mCerulean on the C-terminal side) (human) (UniProt P18850). As to the kind of experiment: FRET or BRET.
The target is the same in assay [2]. In words: FRET or BRET. This is another data set of the same source. A general note: Bioluminescence resonance energy transfer reports proximity on the nanometre scale.

Where two headings read alike, the source gives them in different places.

Sequence of UniProt P18850 (P18850 whole entry, the tested form may be a part): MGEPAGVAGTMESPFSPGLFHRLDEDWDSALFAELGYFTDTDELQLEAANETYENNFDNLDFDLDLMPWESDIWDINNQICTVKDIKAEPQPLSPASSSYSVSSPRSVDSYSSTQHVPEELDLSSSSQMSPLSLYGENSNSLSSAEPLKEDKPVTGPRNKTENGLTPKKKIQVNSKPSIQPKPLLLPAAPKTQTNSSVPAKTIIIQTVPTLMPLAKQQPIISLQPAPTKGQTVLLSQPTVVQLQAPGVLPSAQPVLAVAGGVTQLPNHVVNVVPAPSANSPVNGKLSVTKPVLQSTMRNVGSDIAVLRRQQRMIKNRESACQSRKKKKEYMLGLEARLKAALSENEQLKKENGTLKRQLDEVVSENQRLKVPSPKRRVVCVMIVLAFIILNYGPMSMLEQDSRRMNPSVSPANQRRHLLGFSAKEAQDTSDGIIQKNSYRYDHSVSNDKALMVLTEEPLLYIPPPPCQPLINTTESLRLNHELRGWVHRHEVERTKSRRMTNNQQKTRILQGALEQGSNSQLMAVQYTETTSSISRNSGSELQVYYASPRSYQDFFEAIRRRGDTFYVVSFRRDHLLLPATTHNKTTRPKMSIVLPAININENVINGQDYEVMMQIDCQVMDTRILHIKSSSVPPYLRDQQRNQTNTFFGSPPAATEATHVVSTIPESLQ

As for “mVenus-tagged sorcin (YFP-SRI) (from UniProt P30626 1-198) (natural protein)”, the values for the FRET efficiency in assay [1] and in assay [2] were 11.4% and 11.7%, respectively.
